How the values were obtained:
[1] = biological target: M2e-short (Influenza A virus (consensus)); assay: ELISA, apparent affinity, purified scFv-msFcγ2c on immobilised M2e-short
[2] = biological target: M2e consensus peptide (free, soluble) (Influenza A virus (consensus of H1, H2 and H3 subtypes of human Influenza A viruses)); assay: Friguet ELISA, free M2e peptide in solution

Binder	EC50 [1] [nM]	Kd [2] [µM]	EC50 (scFv-D005-msFcγ2c) [µM]	EC50 (scFv-F052-msFcγ2c) [µM]
scFv-F052-msFcγ2c (Fc fusion) DADPAQAAERVMTQSPDALAVSLGERATINCKSSQSLLYSSNNKNYLAWYQKKPGQPPKLLIYWASTRESGVPDRFSGSGSGTEFTLTINSVQAEDVAVYYCQQYFMTPITFGQGTKLEIKGGSSRSSSSGGGGSGGGGQVQLQESGGALVQPGRSLRLSCRTSGLNFGDYPINWVRQAPGKGLEWVGFIKSKSYGVTTEFAASVEGRFTISRDDSRGIAYLQMNSLKTEDTAVYYCTSSSGFLYYFDYWGQGTLVTVSSASTKGPSVTSGQAGRKLEPRVPITQNPCPPLKECPPCAAPDLLGGPSVFIFPPKIKDVLMISLSPMVTCVVVDVSEDDPDVQISWFVNNVEVHTAQTQTHREDYNSTLRVVSALPIQHQDWMSGKEFKCKVNNRALPSPIEKTISKPRGPVRAPQVYVLPPPAEEMTKKEFSLTCMITGFLPAEIAVDWTSNGRTEQNYKNTATVLDSDGSYFMYSKLRVQKSTWERGSLFACSVVHEGLHNHLTTKTISRSLGK	0.0628	0.005	–	–
SLLTEVETPIRNEWGCRCNDSSD (modifications not checked) [M2e consensus peptide (free, soluble)]	–	–	18.8	22
SLLTEVETPIRNEWGC (modifications not checked) [M2e-short]	–	–	27.5	46.8
scFv-D005-msFcγ2c (Fc fusion) DADPAQAAELVMTQSPDSLAVSLGERATINCKSSQSVLYTSNNKNYLGWYQQKPGQPPNLLIYWASTRESGVPDRFSGSGSGTDFTLTINSVQAEDVAVYYCQQYFMTPITFGQGTRLEIKGGSSRSSSSGGGGSGGGGEVQLVESGGALVQPGRSLRLSCRTSGLNFGDYPINWVRQAPGKGLEWVGFIKSKSYGVTTEFAASVEGRFTISRDDSRGIAYLQMNSLKTEDTAVYYCTSSSGFLYYFDYWGQGTLVTVSSASTKGPSVTSGQAGRKLEPRVPITQNPCPPLKECPPCAAPDLLGGPSVFIFPPKIKDVLMISLSPMVTCVVVDVSEDDPDVQISWFVNNVEVHTAQTQTHREDYNSTLRVVSALPIQHQDWMSGKEFKCKVNNRALPSPIEKTISKPRGPVRAPQVYVLPPPAEEMTKKEFSLTCMITGFLPAEIAVDWTSNGRTEQNYKNTATVLDSDGSYFMYSKLRVQKSTWERGSLFACSVVHEGLHNHLTTKTISRSLGK	0.0809	0.004	–	–

From patent US20110268740A1
